Experimental data as given in article PMC10869471, “Pectin methylesterase 31 is transcriptionally repressed by ABI5 to negatively regulate ABA-mediated inhibition of seed germination”.
Numbering of substitutions follows the chain as printed.

B1: proPME31 probe (50 bp) (dsDNA)
DNA 1: TTGAACAAAGAACTGTTACACGTAGAACCAAACAATATGATGAAAAGTAT
DNA 2: ATACTTTTCATCATATTGTTTGGTTCTACGTGTAACAGTTCTTTGTTCAA
B2: proPME31 mutated probe (mComp) (dsDNA)
DNA 1: B1 DNA 1 with C19A, C21A, G22A, T23A
DNA 2: B1 DNA 2 with A28T, C29T, G30T, G32T

Key:
His-ABI5 [1] = biological target: T1, His-ABI5 (UniProt Q9SJN0 1-442); assay: EMSA; suppressed by 50x and 100x unlabeled probe; Chemiluminescent EMSA Kit (Beyotime); binding buffer, salt, pH and temperature not stated (protein eluted in 100 mM HEPES, 500 mM imidazole, pH 7.5); conditions: protein: recombinant; tags: His (pET-30a); label: biotin; blunt
T1 sequence: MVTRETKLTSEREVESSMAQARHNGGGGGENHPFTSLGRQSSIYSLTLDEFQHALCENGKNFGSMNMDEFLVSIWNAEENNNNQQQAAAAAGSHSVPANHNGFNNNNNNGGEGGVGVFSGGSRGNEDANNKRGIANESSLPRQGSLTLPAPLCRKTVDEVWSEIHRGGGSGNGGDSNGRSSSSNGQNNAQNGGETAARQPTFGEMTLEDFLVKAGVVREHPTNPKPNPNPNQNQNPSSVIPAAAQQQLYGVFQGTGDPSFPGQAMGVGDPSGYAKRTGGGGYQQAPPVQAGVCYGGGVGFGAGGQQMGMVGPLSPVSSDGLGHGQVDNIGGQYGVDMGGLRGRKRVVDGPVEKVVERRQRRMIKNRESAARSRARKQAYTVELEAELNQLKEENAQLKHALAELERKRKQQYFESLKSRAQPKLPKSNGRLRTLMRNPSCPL

His-ABI5 [2] = biological target: T1, His-ABI5; assay: competition; 100x unlabeled mutated competitor against labeled N1; Chemiluminescent EMSA Kit (Beyotime); binding buffer, salt, pH and temperature not stated (protein eluted in 100 mM HEPES, 500 mM imidazole, pH 7.5); conditions: protein: recombinant; tags: His (pET-30a); blunt

Binder	binding result (His-ABI5 [1])	binding result (His-ABI5 [2])
B1	binds	–
B2	–	no binding
